Experimental data: patent US11660340B2, “Combination therapy using T cell redirection antigen binding molecule against cell having immunosuppressing function” (CHUGAI SEIYAKU KABUSHIKI KAISHA, priority 2015, dated 2023)

Legend:
CT26.WT cells = assay: Combined use of mCTLA4/mCD3 and gemcitabine, CT26.WT cell-transplanted model; format: in vivo; conditions: final measurement point; mCTLA4/mCD3 25 μg/mouse day 9, gemcitabine 120 mg/kg day 8, tail vein; n=5; FIG. 19
Protocol: BALB/cA mice and C57BL/6N mice were purchased from Charles River Laboratories Japan, Inc. The CT26.WT cells or the CT26/hGPC3 cells were transplanted subcutaneously to BALB/cA mice, and the LL/2 (LLC1) cells or the LLC1/hGPC3 cells were transplanted subcutaneously to C57BL/6N mice. Models were established when the average volume of the transplanted tumors reached approximately 100 mm^3 to 200 mm^3.
The volume of the transplanted tumor was calculated using the following equation: Tumor volume (mm^3)=major axis (mm)×minor axis (mm)×minor axis (mm)/2
As the pharmaceutical agents to be administered for the combined use test, the anti-mouse CTLA4/anti-mouse CD3 bispecific monoclonal antibody (mCTLA4/mCD3) was prepared at 0.125 mg/mL in PBS (−), and a pyrimidine analog (antimetabolite), gemcitabine (Gemzar: Eli Lilly Japan) was prepared at 12 mg/mL in physiological saline solution (Otsuka Pharmaceutical).
To evaluate the effects of combined use of the anti-mouse CTLA4/anti-mouse CD3 bispecific monoclonal antibody (mCTLA4/mCD3) and gemcitabine, the CT26.WT cell-transplanted model was used and given through the tail vein gemcitabine at 120 mg/kg eight days after transplantation and […] at 25 μg/mouse nine days after transplantation.
Antitumor effects were evaluated from the tumor volumes calculated using the equation shown in (2) of Example 1. […]

mFcgRI = molecular target: T1, mFcgRI (Mus musculus, UniProt P26151); assay: Biacore T200 binding of anti-mouse CTLA4 antibody to mouse FcgR; conditions: 1:1 binding RI = 0, 25° C., pH7.4
T1 sequence (P26151 25-404): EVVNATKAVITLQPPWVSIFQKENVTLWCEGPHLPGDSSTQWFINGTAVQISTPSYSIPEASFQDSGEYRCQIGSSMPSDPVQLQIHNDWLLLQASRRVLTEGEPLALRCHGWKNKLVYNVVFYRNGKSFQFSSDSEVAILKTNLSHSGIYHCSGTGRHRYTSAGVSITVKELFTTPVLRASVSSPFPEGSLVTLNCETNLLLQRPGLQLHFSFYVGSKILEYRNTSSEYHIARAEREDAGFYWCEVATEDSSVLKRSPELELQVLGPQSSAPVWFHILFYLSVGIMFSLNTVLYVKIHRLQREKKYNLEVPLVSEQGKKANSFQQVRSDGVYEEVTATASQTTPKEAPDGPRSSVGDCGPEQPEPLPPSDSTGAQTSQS
Protocol: (§1) Anti-mouse CTLA4 antibody hUH02hUL01-mFa55 and control antibody hUH02hUL01-mIgG2a (the heavy chain variable region UH02 is SEQ ID NO: 28, the light chain variable region UL01 is SEQ ID NO: 29, the heavy chain constant region mIgG2a is SEQ ID NO: 32, and the light chain constant region mk1 is SEQ ID NO: 31) purified and prepared by the method of Reference Example 2-1 were analyzed for their antigen-antibody reactions with various mouse FcgRs (mFcgRI, II, III, and IV) using Biacore™ T200 (GE Healthcare). The running buffer used was 20 mmol/L ACES, 150 mmol/L NaCl, 0.05% (w/v) Tween®20 at pH7.4, and measurements were taken at 25° C. Protein A/G was immobilized onto a Sensor Chip CM7 by amine coupling. hUH02hUL01-mFa55 was captured onto the sensorchip, and then FcgR was allowed to interact as an analyte for 120 seconds, and change in the bound amount was observed. The running buffer was used for dilution of hUH02hUL01-mFa55. The measurement results were analyzed by curve fitting using the Biacore™ T200 Evaluation Software (GE Healthcare) to calculate the association rate constants ka (l/Ms) and the dissociation rate constants kd (l/s). From those values, the dissociation constants KD (M) were determined.

mFcgRII = molecular target: T2, mFcgRII (Mus musculus, UniProt P08101); assay: as above; conditions: 1:1 binding RI = 0, 25° C., pH7.4
T2 sequence (P08101 30-330): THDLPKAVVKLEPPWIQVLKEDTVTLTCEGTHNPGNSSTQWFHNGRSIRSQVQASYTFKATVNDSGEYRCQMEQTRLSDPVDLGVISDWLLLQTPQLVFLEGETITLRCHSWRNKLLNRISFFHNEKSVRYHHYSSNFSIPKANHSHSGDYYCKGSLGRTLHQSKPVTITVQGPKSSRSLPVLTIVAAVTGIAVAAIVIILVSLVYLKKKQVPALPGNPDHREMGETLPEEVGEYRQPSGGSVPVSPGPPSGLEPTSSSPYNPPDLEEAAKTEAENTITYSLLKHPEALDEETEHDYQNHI
Protocol: as §1

mFcgRIII = molecular target: T3, mFcgRIII (Mus musculus, UniProt P08508); assay: as above; conditions: 1.1 binding RI = 0, 25° C., pH7.4
T3 sequence (P08508 31-261): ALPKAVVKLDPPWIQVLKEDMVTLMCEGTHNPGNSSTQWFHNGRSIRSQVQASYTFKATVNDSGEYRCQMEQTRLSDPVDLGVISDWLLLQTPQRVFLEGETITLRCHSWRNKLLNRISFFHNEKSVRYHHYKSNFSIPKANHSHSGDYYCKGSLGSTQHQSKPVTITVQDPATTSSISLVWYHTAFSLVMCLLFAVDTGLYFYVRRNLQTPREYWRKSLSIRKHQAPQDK
Protocol: as §1

mFcgRIV = molecular target: T4, mFcgRIV (Mus musculus, UniProt A0A0B4J1G0); assay: as above; conditions: 1:1 binding RI = 0, 25° C., pH7.4
T4 sequence (A0A0B4J1G0 21-249): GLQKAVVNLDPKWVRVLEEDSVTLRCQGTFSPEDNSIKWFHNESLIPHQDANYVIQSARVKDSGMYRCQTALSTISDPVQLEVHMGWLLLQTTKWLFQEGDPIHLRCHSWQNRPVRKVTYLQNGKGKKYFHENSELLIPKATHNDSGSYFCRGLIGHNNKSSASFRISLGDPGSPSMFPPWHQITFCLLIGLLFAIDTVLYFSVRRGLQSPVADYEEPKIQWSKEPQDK
Protocol: as §1

[1] = system: mouse CTLA4-expressing cells (CHO/mouse CTLA4 cells); assay: ADCC activity, chromium-release assay with mFcgR4-NK92 effector cells; format: cell-based; conditions: antibody 0, 0.04, 0.4, 4, 40 μg/ml, FIG. 5
From the text: Whether anti-mouse CTLA4 antibody hUH02hUL01-mFa55 purified and prepared by the method of Reference Example 2-1 exerts ADCC activity on mouse CTLA4-expressing cells (mouse CTLA4-expressing cells were produced by a method known to those skilled in the art by introducing the full length mouse CTLA4 gene into CHO cells) was examined according to the method of Reference Example 11.
Regarding anti-mouse CTLA4 antibodies, antibody concentration-dependent ADCC activities of test antibodies were measured, using the mouse FcgR4-expressing human NK cell line NK-92 (hereinafter referred to as mFcgR4-NK92) as effector cells by following the method described below.
After washing mFcgR4-NK92 with RPMI-1640 (nacalai tesque) containing 10% FBS (hereinafter referred to as 10% FBS/RPMI), the cells were suspended in 10% FBS/RPMI at a cell density of 4×10^5 cells/ml. […]
The ADCC activities were evaluated from the specific chromium release rate according to the chromium release method. […] The radioactivity of 100 μl of culture supernatant in each well of the plate was measured using a gamma counter. The specific chromium release rate was determined based on the following equation. […] The examinations were performed in duplicate and the mean value for the specific chromium release rate (%) of the test antibody was calculated.

Nc1ccn([C@@H]2O[C@H](CO)[C@@H](O)C2(F)F)c(=O)n1 [gemcitabine]
tumor volume vs. the PBS-administered group (Tukey multiple comparison test) (CT26.WT cells): significant differences (p<0.05)

B1: hUH02hUL01-mFa55: anti-mouse CTLA4 antibody, mouse IgG2a/kappa, constant region mFa55 modified to enhance binding to mouse FcγR (ADCC-enhanced) (antibody)
heavy: QVQLQESGPGLVKPSETLSLTCTVSGYSISSGYGWNWIRQPPGKGLEWIGFIYYEGSTYYNPSIKSRISITRDTSKNQFFLQVNSVTTEDTATYYCARQTGYFDYWGQGTLVTVSSAKTTAPSVYPLAPVCGDTTGSSVTLGCLVKGYFPEPVTLTWNSGSLSSGVHTFPAVLQSDLYTLSSSVTVTSSTWPSQSITCNVAHPASSTKVDKKIEPRGPTIKPCPPCKCPAPNLLGGPDVFIFPPKIKDVLMISLSPIVTCVVVDVSEDDPDVQISWFVNNVEVHTAQTQTHREDYNSTLRVVSALPIQHQDWMSGKEFKCKVNNKDLPAPIERTISKPKGSVRAPQVYVLPPPEEEMTKKQVTLTCMVTDFMPEDIYVEWTNNGKTELNYKNTEPVLDSDGSYFMYSKLRVEKKNWVERNSYSCSVVHEGLHNHHTTKSFSRTPGK
light: DIVMTQSPDSLAVSLGERATINCKSSQSLFNSNAKTNYLNWYQQKPGQPPKLLIYYASTRHTGVPDRFSGSGSGTDFTLTISSLQAEDVAVYYCQQWYDYPYTFGAGTKVEIKRADAAPTVSIFPPSSEQLTSGGASVVCFLNNFYPKDINVKWKIDGSERQNGVLNSWTDQDSKDSTYSMSSTLTLTKDEYERHNSYTCEATHKTSTSPIVKSFNRNEC
ka (mFcgRI): 1.2e+06 M⁻¹ s⁻¹ | kd (mFcgRI): 0.0031 s⁻¹ | ka (mFcgRII): 2.1e+06 M⁻¹ s⁻¹ | kd (mFcgRII): 0.76 s⁻¹ | ka (mFcgRIII): 2.4e+06 M⁻¹ s⁻¹ | kd (mFcgRIII): 0.62 s⁻¹ | ka (mFcgRIV): 1.5e+06 M⁻¹ s⁻¹ | kd (mFcgRIV): 0.0028 s⁻¹ | ADCC activity (specific chromium release rate) [1]: ADCC activity in an antibody concentration-dependent manner
